Biological target: His-tagged SA2107 labelled with ATTO 488 (SA2107_(488)) (Staphylococcus aureus)
Experiment: flow-induced dispersion analysis (FIDA); PreMix method; 20 nM SA2107_(488) as indicator, preincubated 10 min with 0-2 µM unlabelled ComK1 or ComK2 as analyte; PBS + Tween 0.1%; 25 °C; change of the apparent hydrodynamic radius; three independent experiments

Kd: 420 nM
Substance: His6-tagged ComK2 (recombinant, purified) (natural protein)

From paper PMC12491500
